Reference: patent US20160089413

System: all-D-retro-inverso JNK-inhibitor (poly-)peptide of SEQ ID NO: 11

c-Jun NH2-terminal kinases (JNK)
c-Jun phosphorylation in RPE/choroid, densitometry of phospho c-Jun relative to tubulin, 24 h after IV injection (20 µg/kg): 0.28±0.01 vs 0.77±0.26 in IV of vehicle | c-Jun phosphorylation in RPE/choroid, densitometry of phospho c-Jun relative to tubulin, 24 h after IVT injection (0.2 µg/injection): 0.35±0.08 vs 0.79±0.25 in IVT of vehicle | c-Jun phosphorylation in RPE/choroid, densitometry of phospho c-Jun relative to tubulin, fold decrease against vehicle: An approximately 3-fold decrease in c-Jun phosphorylation
